Measurements: US20190321478A1 (published 2019)

T1: TMTC4 (peptide code TMTC4-001) peptide on HLA-A*02:01 (human)
T1 peptide: NVLEIVQKV

T2: KIAA103 (peptide code KIAA103-002) peptide on HLA-A*02:01 (human)
T2 peptide: KVLNKVITV

T3: GALNTL4 (peptide code GALNTL4-001) peptide on HLA-A*02:01 (human)
T3 peptide: KLTEYVDKV

T4: PTRF (peptide code PTRF-001) peptide on HLA-A*02:01 (human)
T4 peptide: KLLEKVRKV

T5: PSME2 (peptide code PSME2-001) peptide on HLA-A*02:01 (human)
T5 peptide: KVLERVNAV

T6: TMEM175 (peptide code TMEM175-001) peptide on HLA-A*02:01 (human)
T6 peptide: ILLPYVSKV

T7: NSD1 (peptide code NSD1-001) peptide on HLA-A*02:01 (human)
T7 peptide: KVQEQVHKV

T8: EPAS (peptide code EPAS-001) peptide on HLA-A*02:01 (human)
T8 peptide: KALEGFIAV

T9: RASAL2 (peptide code RASAL2-002) peptide on HLA-A*02:01 (human)
T9 peptide: SVLEPVISV

T10: TBC1D9 (peptide code TBC1D9-002) peptide on HLA-A*02:01 (human)
T10 peptide: LLLPDVIKV

T11: MAGEA1 (peptide MAGEA1-003) peptide on HLA-A*02:01 (human)
T11 peptide: KVLEYVIKV


Key:
[1] = target: T1, TMTC4 (peptide code TMTC4-001) peptide …; assay: cytokine release
[2] = target: T2, KIAA103 (peptide code KIAA103-002) …; assay: cytokine release
[3] = target: T3, GALNTL4 (peptide code GALNTL4-001) …; assay: cytokine release
[4] = target: T4, PTRF (peptide code PTRF-001) peptide on …; assay: cytokine release
[5] = target: T5, PSME2 (peptide code PSME2-001) peptide …; assay: cytokine release
[6] = target: T6, TMEM175 (peptide code TMEM175-001) …; assay: cytokine release
[7] = target: T7, NSD1 (peptide code NSD1-001) peptide on …; assay: cytokine release
[8] = target: T8, EPAS (peptide code EPAS-001) peptide on …; assay: cytokine release
[9] = target: T9, RASAL2 (peptide code RASAL2-002) …; assay: cytokine release
[10] = target: T10, TBC1D9 (peptide code TBC1D9-002) …; assay: cytokine release
[11] = target: T11, MAGEA1 (peptide MAGEA1-003) peptide on …; assay: multimer staining

Binder | binding result [1] | binding result [2] | binding result [3] | binding result [4] | binding result [5] | binding result [6] | binding result [7] | binding result [8] | binding result [9] | binding result [10] | binding result [11]
R42P3A9 (TCR, V domains shown) Valpha: GIQVEQSPPDLILQEGANSTLRCNFSDSVNNLQWFHQNPWGQLINLFYIPSGTKQNGRLSATTVATERYSLLYISSSQTTDSGVYFCAVHNFNKFYFGSGTKLNVKP Vbeta: AAGVIQSPRHLIKEKRETATLKCYPIPRHDTVYWYQQGPGQDPQFLISFYEKMQSDKGSIPDRFSAQQFSDYHSELNMSSLELGDSALYFCASSLLGQGYNEQFFGPGTRLTVL | no recognition | no recognition | no recognition | no recognition | no recognition | no recognition | no recognition | no recognition | no recognition | no recognition | recognises
R59P2E7 (TCR, V domains shown) Valpha: KQEVTQIPAALSVPEGENLVLNCSFTDSAIYNLQWFRQDPGKGLTSLLLIQSSQREQTSGRLNASLDKSSGRSTLYIAASQPGDSATYLCAVNSDYKLSFGAGTTVTVRA Vbeta: AAGVIQSPRHLIKEKRETATLKCYPIPRHDTVYWYQQGPGQDPQFLISFYEKMQSDKGSIPDRFSAQQFSDYHSELNMSSLELGDSALYFCASSLGLGTGDYGYTFGSGTRLTVV | no recognition | no recognition | no recognition | no recognition | no recognition | no recognition | no recognition | no recognition | no recognition | no recognition | recognises
R37P1H1 (TCR, V domains shown) Valpha: AQTVTQSQPEMSVQEAETVTLSCTYDTSESNYYLFWYKQPPSRQMILVIRQEAYKQQNATENRFSVNFQKAAKSFSLKISDSQLGDTAMYFCAFGYSGGGADGLTFGKGTHLIIQP Vbeta: DAGVTQSPTHLIKTRGQQVTLRCSPKSGHDTVSWYQQALGQGPQFIFQYYEEEERQRGNFPDRFSGHQFPNYSSELNVNALLLGDSALYLCASSNEGQGWEAEAFFGQGTRLTVV | no recognition | no recognition | no recognition | no recognition | no recognition | no recognition | no recognition | no recognition | no recognition | no recognition | recognises

Other lines, results leading:

binding result [1] | binding result [2] | binding result [3] | binding result [4] | binding result [5] | binding result [6] | binding result [7] | binding result [8] | binding result [9] | binding result [10] | binding result [11] | Binder
no recognition | no recognition | no recognition | no recognition | no recognition | no recognition | no recognition | no recognition | no recognition | no recognition | recognises | R26P3H1 (TCR, V domains shown) Valpha: AQSVAQPEDQVNVAEGNPLTVKCTYSVSGNPYLFWYVQYPNRGLQFLLKYITGDNLVKGSYGFEAEFNKSQTSFHLKKPSALVSDSALYFCAVRDMNRDDKIIFGKGTRLHILP Vbeta: DGGITQSPKYLFRKEGQNVTLSCEQNLNHDAMYWYRQDPGQGLRLIYYSQIVNDFQKGDIAEGYSVSREKKESFPLTVTSAQKNPTAFYLCASSRAEGGEQYFGPGTRLTVT
no recognition | no recognition | no recognition | no recognition | no recognition | no recognition | no recognition | no recognition | no recognition | no recognition | recognises | R26P2A6 (TCR, V domains shown) Valpha: QKEVEQDPGPLSVPEGAIVSLNCTYSNSAFQYFMWYRQYSRKGPELLMYTYSSGNKEDGRFTAQVDKSSKYISLFIRDSQPSDSATYLCAMSDVSGGYNKLIFGAGTRLAVHP Vbeta: EAQVTQNPRYLITVTGKKLTVTCSQNMNHEYMSWYRQDPGLGLRQIYYSMNVEVTDKGDVPEGYKVSRKEKRNFPLILESPSPNQTSLYFCASTTPDGTDEQFFGPGTRLTVL
no recognition | no recognition | no recognition | no recognition | no recognition | no recognition | no recognition | no recognition | no recognition | no recognition | recognises | R26P1A9 (TCR, V domains shown) Valpha: SQQGEEDPQALSIQEGENATMNCSYKTSINNLQWYRQNSGRGLVHLILIRSNEREKHSGRLRVTLDTSKKSSSLLITASRAADTASYFCLIGASGSRLTFGEGTQLTVNP Vbeta: DAGVIQSPRHEVTEMGQEVTLRCKPISGHDYLFWYRQTMMRGLELLIYFNNNVPIDDSGMPEDRFSAKMPNASFSTLKIQPSEPRDSAVYFCASSYFGWNEKLFFGSGTQLSVL
